Source: PMC6838200 (2019)

What was measured:
[1] = target: T1, Spa2-C (Spa2 C-terminal region, 1306-1466aa) (S. cerevisiae, UniProt P23201 1306-1466); experiment: SPR; bivalent model, koff1
T1 chain: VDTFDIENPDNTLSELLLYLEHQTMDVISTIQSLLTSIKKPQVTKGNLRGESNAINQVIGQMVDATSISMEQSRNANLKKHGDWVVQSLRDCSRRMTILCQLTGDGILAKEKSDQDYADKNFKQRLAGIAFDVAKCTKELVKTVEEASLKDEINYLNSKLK

[2] = target: T1, Spa2-C (Spa2 C-terminal region, …); experiment: SPR; bivalent model, koff2 (second site)

B1: Aip5-N271 (domain or fragment)
chain: MVESLTVENQEHNVQPPSVTSAGDSYSTLATDLPLPSTNDIIESRDQLTESDLDEAINATENFAQELSSQRKSSKLKGHKKKNQGQIKANRDRDTIVKLSSSVGETEEASTRDAISHDLERKDDVIEIATDTINDATESPTQIPIDVNVVIKETSTNNVAEGTENVPPIKESTGIEVGNSPITRRKKNKKKKTTNRRGRNSSNPADTTDLSKQSTLDSILVGIEEYLQEDGSKNEDIKVNIVQDEPVNVEKMDIRTRNESSDKTFDIDVPN
**Q.** How did the koff [1] turn out when B1 was run?
**A.** The koff was 0.046 s⁻¹.

**Q.** What about the koff [2] of the same binder?
**A.** Its koff is 0.00266 s⁻¹.
